The supplement of paper PMC6757056
± gives the standard deviation of the averaged measurements.

B1: library; a variant is named by its letters at N, in order (parent)
chain: GCUGUCACCGAGAAACUGUGAAGUAUAUCUUAAACCUGGGCACUUAAAAGAUAUAUGGAGUUAGUAGUGCAACCUGCUCGGUCUGAUGAGUCCNNNNNNGGACGAAACAGC

Key:
cyclic di-GMP [1] = variants of: B1; test: FACS-Seq fitted mean relative fluorescence mCherry/BFP without ligand (log10 relative fluorescence); HEK293T; ligand: cyclic di-GMP (c-di-GMP-II aptamer); higher = higher reporter protein expression; conditions: ligand present: no
Method in brief: (§1)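 Lentivirally transduced HEK293T libraries carried an mCherry reporter with the ribozyme switch and an EF1α-BFP marker. Transduced cells were enriched, then incubated with or without ligand for 48 h and sorted into 6 bins by mCherry/BFP. Genomic DNA from each bin was PCR-amplified, barcoded and sequenced on MiSeq. Fluorescence was the fitted normal mean of log10(mCherry/BFP) bin counts, scaled to five spiked-in control ribozymes.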

cyclic di-GMP [2] = variants of: B1; test: normalized RNA/DNA level without ligand (relative to sTRSVctl = 100) (log10 (% of sTRSVctl)); HEK293T; ligand: cyclic di-GMP (c-di-GMP-II aptamer); higher = less ribozyme self-cleavage, higher mRNA level; conditions: reporter: mCherry (pCS4076), ligand present: no
Experimental: (§2)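 Hammerhead (sTRSV) ribozyme switch libraries with a ligand aptamer grafted on stem I and a randomized N4-6 loop II, cloned into the 3' UTR of mCherry and transiently transfected into HEK293T cells; RNA-Seq 72 h post transfection with ligand added 1 h before transfection; RNA read count / plasmid DNA read count normalized to the non-cleaving sTRSVctl (x100), log10; sequences with >100 DNA reads. FACS-Seq: lentiviral library sorted into 6 bins after 48 h ligand, log-normal fit mean of mCherry/BFP scaled to controls. Printed sequences are partial switch sequences.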

cyclic di-GMP [3] = variants of: B1; test: FACS-Seq fitted mean relative fluorescence mCherry/BFP with ligand (log10 relative fluorescence); HEK293T; ligand: cyclic di-GMP (c-di-GMP-II aptamer); ligand concentration (+) FACS-Seq: 1 mM; higher = higher reporter protein expression; conditions: ligand present: yes
Method in brief: as §1

cyclic di-GMP [4] = variants of: B1; test: normalized RNA/DNA level with ligand (relative to sTRSVctl = 100) (log10 (% of sTRSVctl)); HEK293T; ligand: cyclic di-GMP (c-di-GMP-II aptamer); ligand concentration (+) RNA-Seq: 1 mM; higher = less ribozyme self-cleavage, higher mRNA level; conditions: reporter: mCherry (pCS4076), ligand present: yes
Experimental: as §2

Variant	FACS-Seq fitted mean (log10) (cyclic di-GMP [1])	normalized RNA/DNA level without ligand (log10) (cyclic di-GMP [2])	FACS-Seq fitted mean (log10) (cyclic di-GMP [3])	normalized RNA/DNA level with ligand (log10) (cyclic di-GMP [4])
GCUGUCACCGAGAAACUGUGAAGUAUAUCUUAAACCUGGGCACUUAAAAGAUAUAUGGAGUUAGUAGUGCAACCUGCUCGGUCUGAUGAGUCCAAUACGGGACGAAACAGC [AAUACG]	-0.6 ± 0.066	1.6 ± 0.058	-0.2 ± 0.094	1.78 ± 0.06
GCUGUCACCGAGAAACUGUGAAGUAUAUCUUAAACCUGGGCACUUAAAAGAUAUAUGGAGUUAGUAGUGCAACCUGCUCGGUCUGAUGAGUCCCCGGUUGGACGAAACAGC [CCGGUU]	-0.109 ± 0.11	1.592 ± 0.0094	0.264 ± 0.0069	1.78 ± 0.096
GCUGUCACCGAGAAACUGUGAAGUAUAUCUUAAACCUGGGCACUUAAAAGAUAUAUGGAGUUAGUAGUGCAACCUGCUCGGUCUGAUGAGUCCCCCUAGGGACGAAACAGC [CCCUAG]	-0.7711 ± 0.0036	1.65 ± 0.031	-0.624 ± 0.025	1.84 ± 0.13
GCUGUCACCGAGAAACUGUGAAGUAUAUCUUAAACCUGGGCACUUAAAAGAUAUAUGGAGUUAGUAGUGCAACCUGCUCGGUCUGAUGAGUCCCCGUUGGGACGAAACAGC [CCGUUG]	-0.483 ± 0.093	1.28 ± 0.069	-0.2456 ± 0.00076	1.49 ± 0.1
GCUGUCACCGAGAAACUGUGAAGUAUAUCUUAAACCUGGGCACUUAAAAGAUAUAUGGAGUUAGUAGUGCAACCUGCUCGGUCUGAUGAGUCCAUGAUUGGACGAAACAGC [AUGAUU]	-0.57 ± 0.11	1.41 ± 0.17	-0.0144 ± 0.094	1.62 ± 0.11
GCUGUCACCGAGAAACUGUGAAGUAUAUCUUAAACCUGGGCACUUAAAAGAUAUAUGGAGUUAGUAGUGCAACCUGCUCGGUCUGAUGAGUCCAACAGUGGACGAAACAGC [AACAGU]	-1.23 ± 0.038	1.57 ± 0.076	-1.08 ± 0.027	1.76 ± 0.063
GCUGUCACCGAGAAACUGUGAAGUAUAUCUUAAACCUGGGCACUUAAAAGAUAUAUGGAGUUAGUAGUGCAACCUGCUCGGUCUGAUGAGUCCGUAACGGGACGAAACAGC [GUAACG]	-0.145 ± 0.033	1.678 ± 0.014	0.124 ± 0.056	1.78 ± 0.14
GCUGUCACCGAGAAACUGUGAAGUAUAUCUUAAACCUGGGCACUUAAAAGAUAUAUGGAGUUAGUAGUGCAACCUGCUCGGUCUGAUGAGUCCUAAGGAGGACGAAACAGC [UAAGGA]	-0.894 ± 0.046	1.54 ± 0.1	-0.73 ± 0.051	1.7 ± 0.066
GCUGUCACCGAGAAACUGUGAAGUAUAUCUUAAACCUGGGCACUUAAAAGAUAUAUGGAGUUAGUAGUGCAACCUGCUCGGUCUGAUGAGUCCAGAAGAGGACGAAACAGC [AGAAGA]	-0.764 ± 0.056	1.36 ± 0.023	-0.515 ± 0.035	1.57 ± 0.14
GCUGUCACCGAGAAACUGUGAAGUAUAUCUUAAACCUGGGCACUUAAAAGAUAUAUGGAGUUAGUAGUGCAACCUGCUCGGUCUGAUGAGUCCGCGUAGGGACGAAACAGC [GCGUAG]	-0.637 ± 0.047	1.67 ± 0.074	-0.348 ± 0.095	1.8 ± 0.085
GCUGUCACCGAGAAACUGUGAAGUAUAUCUUAAACCUGGGCACUUAAAAGAUAUAUGGAGUUAGUAGUGCAACCUGCUCGGUCUGAUGAGUCCUUGUUCGGACGAAACAGC [UUGUUC]	-0.6418 ± 0.0047	1.75 ± 0.018	-0.462 ± 0.0095	1.89 ± 0.1
GCUGUCACCGAGAAACUGUGAAGUAUAUCUUAAACCUGGGCACUUAAAAGAUAUAUGGAGUUAGUAGUGCAACCUGCUCGGUCUGAUGAGUCCGCAAUCGGACGAAACAGC [GCAAUC]	-0.612 ± 0.083	1.27 ± 0.1	-0.425 ± 0.016	1.52 ± 0.1
GCUGUCACCGAGAAACUGUGAAGUAUAUCUUAAACCUGGGCACUUAAAAGAUAUAUGGAGUUAGUAGUGCAACCUGCUCGGUCUGAUGAGUCCCACAGUGGACGAAACAGC [CACAGU]	-0.189 ± 0.13	1.74 ± 0.045	0.105 ± 0.062	1.85 ± 0.064
